Results on one molecule are retold here after article PMC4197815.

For the test, the target named is NL2HA-S714A (human) (UniProt Q8NFZ4). As to the kind of experiment: co-IP.
UniProt Q8NFZ4, sequence (Q8NFZ4 15-835, stated change not applied): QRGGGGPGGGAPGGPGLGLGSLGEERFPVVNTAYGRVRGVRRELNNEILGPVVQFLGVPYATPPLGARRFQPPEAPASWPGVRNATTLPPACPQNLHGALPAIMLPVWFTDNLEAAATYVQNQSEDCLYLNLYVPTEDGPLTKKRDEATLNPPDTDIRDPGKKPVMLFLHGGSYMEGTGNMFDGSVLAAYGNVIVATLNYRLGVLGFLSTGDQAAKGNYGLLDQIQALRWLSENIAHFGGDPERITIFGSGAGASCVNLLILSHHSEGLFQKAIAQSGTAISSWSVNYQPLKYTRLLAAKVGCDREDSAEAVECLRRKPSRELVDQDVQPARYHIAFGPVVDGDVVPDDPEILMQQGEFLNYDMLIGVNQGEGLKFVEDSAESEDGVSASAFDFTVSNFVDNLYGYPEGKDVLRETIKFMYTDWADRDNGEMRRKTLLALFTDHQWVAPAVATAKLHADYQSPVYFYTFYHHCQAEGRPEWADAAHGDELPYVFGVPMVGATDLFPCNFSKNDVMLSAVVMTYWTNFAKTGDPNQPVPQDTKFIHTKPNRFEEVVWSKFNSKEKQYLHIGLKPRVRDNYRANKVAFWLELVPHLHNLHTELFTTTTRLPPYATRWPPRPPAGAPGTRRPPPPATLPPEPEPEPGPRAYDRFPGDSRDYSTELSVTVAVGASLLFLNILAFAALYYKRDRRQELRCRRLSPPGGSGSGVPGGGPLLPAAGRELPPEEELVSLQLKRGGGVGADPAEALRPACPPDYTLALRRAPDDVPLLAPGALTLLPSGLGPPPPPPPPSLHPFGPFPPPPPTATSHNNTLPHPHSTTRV

B1: gephyrin-FLAG (natural protein)
chain: MATEGMILTNHDHQIRVGVLTVSDSCFRNLAEDRSGINLKDLVQDPSLLGGTISAYKIVPDEIEEIKETLIDWCDEKELNLILTTGGTGFAPRDVTPEATKEVIEREAPGMALAMLMGSLNVTPLGMLSRPVCGIRGKTLIINLPGSKKGSQECFQFILPALPHAIDLLRDAIVKVKEVHDELEDLPSPPPPLSPPPTTSPHKQTEDKGVQCEEEEEEKKDSGVASTEDSSSSHITAAALAAKIPDSIISRGVQVLPRDTASLSTTPSESPRAQATSRLSTASCPTPKVQSRCSSKENILRASHSAVDITKVARRHRMSPFPLTSMDKAFITVLEMTPVLGTEIINYRDGMGRVLAQDVYAKDNLPPFPASVKDGYAVRAADGPGDRFIIGESQAGEQPTQTVMPGQVMRVTTGAPIPCGADAVVQVEDTELIRESDDGTEELEVRILVQARPGQDIRPIGHDIKRGECVLAKGTHMGPSEIGLLATVGVTEVEVNKFPVVAVMSTGNELLNPEDDLLPGKIRDSNRSTLLATIQEHGYPTINLGIVGDNPDDLLNALNEGISRADVIITSGGVSMGEKDYLKQVLDIDLHAQIHFGRVFMKPGLPTTFATLDIDGVRKIIFALPGNPVSAVVTCNLFVVPALRKMQGILDPRPTIIKARLSCDVKLDPRPEYHRCILTWHHQEPLPWAQSTGNQMSSRLMSMRSANGLLMLPPKTEQYVELHKGEVVDVMVIGRL
B1 showed an increase of co-precipitated gephyrin-FLAG against NL2HA of 140%.
